Reference: patent publication US20260028387A1 (published 2026)

B1: LAYTLGVKQL (SEQ ID NO: 63) (peptide)
peptide: LAYTLGVKQL
notes: synthetic peptide; source genes EEF1A1P5, EEF1A1, EEF1A2
B2: PAVLQSSGLYSL (SEQ ID NO: 68) (peptide)
peptide: PAVLQSSGLYSL
notes: synthetic peptide; source genes IGHV4-31, IGHG1, IGHG2, IGHG3, IGHG4, IGHM
B3: FVLDTSESV (SEQ ID NO: 70) (peptide)
peptide: FVLDTSESV
notes: synthetic peptide; source genes COL6A1, COL6A2
B4: HLIAEIHTA (SEQ ID NO: 9) (peptide)
peptide: HLIAEIHTA
notes: synthetic peptide; source gene PTHLH; also called PTHL-001
B5: GLLVGSEKVTM (SEQ ID NO: 69) (peptide)
peptide: GLLVGSEKVTM
notes: synthetic peptide; source genes KRT14, KRT16, KRT16P3

Molecular target: T1, HLA-A*02:01 (peptide-receptive MHC class I molecule of the UV-ligand exchange assay) (human)
T1 construct: MHC monomer first loaded with a UV-sensitive peptide (not identified) that is cleaved by UV light and exchanged for the test peptide; captured on streptavidin plates
Assay: UV-ligand exchange, anti-b2m ELISA; peptide exchange yield grade (>=10% = +; >=20% = ++; >=50 = +++; >=75% = ++++)
Source text: Candidate peptides for T cell based therapies according to the present invention were further tested for their MHC binding capacity (affinity). The individual peptide-MHC complexes were produced by UV-ligand exchange, where a UV-sensitive peptide is cleaved upon UV-irradiation, and exchanged with the peptide of interest as analyzed. Only peptide candidates that can effectively bind and stabilize the peptide-receptive MHC molecules prevent dissociation of the MHC complexes. To determine the yield of the exchange reaction, an ELISA was performed based on the detection of the light chain (β2m) of stabilized MHC complexes. The assay was performed as generally described in Rodenko et al. (Rodenko et al., 2006).
96 well MAXISorp plates (NUNC) were coated aver night with 2 ug/ml streptavidin in PBS at room temperature, washed 4× and blocked for 1 h at 37° C. in 2% BSA containing blocking buffer. Refolded HLA-A*02:01/MLA-001 monomers served as standards, covering the range of 15-500 ng/ml. Peptide-MHC monomers of the UV-exchange reaction were diluted 100 fold in blocking buffer. Samples were incubated for 1 h at 37° C., washed four times, incubated with 2 ug/ml HRP conjugated anti-02m for 1 h at 37° C., washed again and detected with TMB solution that is stopped with […]. Absorption was measured at 450 nm. Candidate peptides that show a high exchange yield (preferably higher than 50%, most preferred higher than 75%) are generally preferred for a generation and production of antibodies or fragments thereof, and/or T cell receptors or fragments thereof, as they show sufficient avidity to the MHC molecules and prevent dissociation of the MHC complexes.

Binder | peptide exchange yield
FLDNGPKTI (synthetic peptide; source gene EIF4G2) [FLDNGPKTI (SEQ ID NO: 87)] | 50 to 75%
VLVPYEPPQV (synthetic peptide; source gene TP63) [VLVPYEPPQV (SEQ ID NO: 77)] | 20 to 50%
YVVGGFLYQRL (synthetic peptide; source gene M6PR) [YVVGGFLYQRL (SEQ ID NO: 65)] | 50 to 75%
FLPPAQVTV (synthetic peptide; source gene NOL6) [FLPPAQVTV (SEQ ID NO: 72)] | 20 to 50%
B1 | 50 to 75%
GLTDVIRDV (synthetic peptide; source gene FBXL18) [GLTDVIRDV (SEQ ID NO: 64)] | ≥ 75%
ALQEALENA (synthetic peptide; source gene NUP155) [ALQEALENA (SEQ ID NO: 80)] | 20 to 50%
AVLPHVDQV (synthetic peptide; source gene KIAA0947) [AVLPHVDQV (SEQ ID NO: 81)] | 50 to 75%
KVADYIPQL (synthetic peptide; source gene GLS) [KVADYIPQL (SEQ ID NO: 76)] | 50 to 75%
VLINTSVTL (synthetic peptide; source gene ZNF292) [VLINTSVTL (SEQ ID NO: 93)] | 50 to 75%
ILASLATSV (synthetic peptide; source gene TUBGCP2) [ILASLATSV (SEQ ID NO: 74)] | 50 to 75%
B2 | 20 to 50%
SMNGGVFAV (synthetic peptide; source gene SLC7A11) [SMNGGVFAV (SEQ ID NO: 67)] | 20 to 50%
ASDPILYRPVAV (synthetic peptide; source gene PKM) [ASDPILYRPVAV (SEQ ID NO: 71)] | 50 to 75%
KVANIIAEV (synthetic peptide; source gene RAP1GDS1) [KVANIIAEV (SEQ ID NO: 78)] | 20 to 50%
GQDVGRYQV (synthetic peptide; source gene SSR4) [GQDVGRYQV (SEQ ID NO: 79)] | 20 to 50%
SLADSLYNL (synthetic peptide; source gene CAMSAP2) [SLADSLYNL (SEQ ID NO: 89)] | 20 to 50%

Binder | peptide exchange yield
ALYEYQPLQI (synthetic peptide; source gene MNAT1) [ALYEYQPLQI (SEQ ID NO: 62)] | 20 to 50%
KITEAIQYV (synthetic peptide; source gene RORA) [KITEAIQYV (SEQ ID NO: 73)] | 50 to 75%
KLIDDVHRL (synthetic peptide; source gene SRPR) [KLIDDVHRL (SEQ ID NO: 91)] | ≥ 75%
LLDEKVQSV (synthetic peptide; source gene TSHZ3) [LLDEKVQSV (SEQ ID NO: 66)] | 50 to 75%
SLDENSDQQV (synthetic peptide; source gene S100A2) [SLDENSDQQV (SEQ ID NO: 10)] | 50 to 75%
SLAESLDQA (synthetic peptide; source gene DIS3) [SLAESLDQA (SEQ ID NO: 84)] | 50 to 75%
NIIELVHQV (synthetic peptide; source gene SYK) [NIIELVHQV (SEQ ID NO: 85)] | ≥ 75%
SIYEYYHAL (synthetic peptide; source gene HIF1A) [SIYEYYHAL (SEQ ID NO: 90)] | 50 to 75%
ALLDGGSEAYWRV (synthetic peptide; source gene FAM83A) [ALLDGGSEAYWRV (SEQ ID NO: 8)] | 50 to 75%
B3 | 50 to 75%
SILRHVAEV (synthetic peptide; source gene EIF2S1) [SILRHVAEV (SEQ ID NO: 92)] | 20 to 50%
HLLGHLEQA (synthetic peptide; source gene PRDM15) [HLLGHLEQA (SEQ ID NO: 82)] | 50 to 75%
ALADGVVSQA (synthetic peptide; source gene GPKOW) [ALADGVVSQA (SEQ ID NO: 83)] | 50 to 75%
B4 | 50 to 75%
SIFEGLLSGV (synthetic peptide; source gene GJB5) [SIFEGLLSGV (SEQ ID NO: 7)] | 20 to 50%
B5 | 50 to 75%
